Reference: PMC11986948, “The carboxylesterase AtCXE12 converts volatile (Z)-3-hexenyl acetate to (Z)-3-hexenol in Arabidopsis leaves” (Plant Physiology, 2025)

B1: AtCXE12 (Arabidopsis thaliana) (protein)
chain: MDSEIAVDCSPLLKIYKSGRIERLMGEATVPPSSEPQNGVVSKDVVYSADNNLSVRIYLPEKAAAETDSKLPLLVYFHGGGFIIETAFSPTYHTFLTTSVSASNCVAVSVDYRRAPEHPISVPFDDSWTALKWVFTHITGSGQEDWLNKHADFSRVFLSGDSAGANIVHHMAMRAAKEKLSPGLNDTGISGIILLHPYFWSKTPIDEKDTKDETLRMKIEAFWMMASPNSKDGTDDPLLNVVQSESVDLSGLGCGKVLVMVAEKDALVRQGWGYAAKLEKSGWKGEVEVVESEGEDHVFHLLKPECDNAIEVMHKFSGFIKGGN
B2: AtCXE5 (Arabidopsis thaliana) (protein)
chain: MESEIASEFLPFCRIYKDGRVERLIGTDTIPASLDPTYDVVSKDVIYSPENNLSVRLFLPHKSTKLTAGNKLPLLIYIHGGAWIIESPFSPLYHNYLTEVVKSANCLAVSVQYRRAPEDPVPAAYEDVWSAIQWIFAHSNGSGPVDWINKHADFGKVFLGGDSAGGNISHHMAMKAGKEKKLDLKIKGIAVVHPAFWGTDPVDEYDVQDKETRSGIAEIWEKIASPNSVNGTDDPLFNVNGSGSDFSGLGCDKVLVAVAGKDVFVRQGLAYAAKLEKCEWEGTVEVVEEEGEDHVFHLQNPKSDKALKFLKKFVEFIIG

What was measured:
Experiment in all cases: GC-MS of (Z)-3-hexenol formed, Michaelis-Menten fit
Type in all cases: biochemical, Arabidopsis thaliana
Conditions in all cases: 50 mM Tris-HCl pH 7.5, 30 °C, 10 min, 0.5 µM enzyme
[1] = substrate: CC/C=C\CCOC(=O)CCC
Excerpt: (§1) GC-MS of (Z)-3-hexenol formed, Michaelis-Menten fit on AtCXE12

[2] = substrate: CC/C=C\CCOC(=O)CC
Excerpt: as §1

[3] = substrate: CC/C=C\CCOC(C)=O
Excerpt: as §1

[4] = substrate: CC/C=C\CCOC(=O)CCC; remark: listed apart in the source
Excerpt: (§2) GC-MS of (Z)-3-hexenol formed, Michaelis-Menten fit on AtCXE5

[5] = substrate: CC/C=C\CCOC(=O)CC; remark: listed apart in the source
Excerpt: as §2

[6] = substrate: CC/C=C\CCOC(C)=O; remark: listed apart in the source
Excerpt: as §2

Protein | Km [1] | kcat [1] | kcat/Km [1] | Km [2] | kcat [2] | kcat/Km [2] | Km [3] | kcat [3] | kcat/Km [3] | Km [4] | kcat [4] | kcat/Km [4] | Km [5] | kcat [5] | kcat/Km [5] | Km [6] | kcat [6] | kcat/Km [6]
B1 | 460 ± 50 µM | 0.85 s⁻¹ | 1860 M⁻¹ s⁻¹ | 2260 ± 340 µM | 2.25 s⁻¹ | 990 M⁻¹ s⁻¹ | 5940 ± 840 µM | 3.78 s⁻¹ | 640 M⁻¹ s⁻¹ |  |  |  |  |  |  |  |  | 
B2 |  |  |  |  |  |  |  |  |  | 240 ± 30 µM | 0.16 s⁻¹ | 650 M⁻¹ s⁻¹ | 1450 ± 190 µM | 0.3 s⁻¹ | 210 M⁻¹ s⁻¹ | 8630 ± 1280 µM | 3.17 s⁻¹ | 380 M⁻¹ s⁻¹
